Data: patent US20240293544A1 (KIROMIC BIOPHARMA, published 2024)

Key:
[1] = molecular target: T1, Mesothelin Isoform 2 (IsoMSLN), antigen of the ELISA (human, UniProt Q13421 37-598); assay: ELISA
T1 construct: also called MSLN Isoform 2; mesothelin isoform-2 polypeptide

[2] = molecular target: T2, Mesothelin (MSLN) Isoform 1, antigen of the ELISA (human, UniProt Q13421 296-598, limits assumed); assay: ELISA
T2 construct: also called Mesothelin canonical polypeptide
T2 sequence (Q13421 other isoform, or with tags, fused parts or gaps limits assumed): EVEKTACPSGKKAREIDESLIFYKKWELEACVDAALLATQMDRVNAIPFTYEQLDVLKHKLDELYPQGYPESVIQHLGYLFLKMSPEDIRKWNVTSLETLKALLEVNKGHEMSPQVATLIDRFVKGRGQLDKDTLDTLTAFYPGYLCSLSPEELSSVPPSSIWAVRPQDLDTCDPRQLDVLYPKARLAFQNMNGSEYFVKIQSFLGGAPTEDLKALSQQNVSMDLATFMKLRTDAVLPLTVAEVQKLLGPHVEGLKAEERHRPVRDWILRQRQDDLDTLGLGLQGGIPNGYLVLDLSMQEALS

T1 sequence (Q13421 37-606 limits assumed, form in doubt): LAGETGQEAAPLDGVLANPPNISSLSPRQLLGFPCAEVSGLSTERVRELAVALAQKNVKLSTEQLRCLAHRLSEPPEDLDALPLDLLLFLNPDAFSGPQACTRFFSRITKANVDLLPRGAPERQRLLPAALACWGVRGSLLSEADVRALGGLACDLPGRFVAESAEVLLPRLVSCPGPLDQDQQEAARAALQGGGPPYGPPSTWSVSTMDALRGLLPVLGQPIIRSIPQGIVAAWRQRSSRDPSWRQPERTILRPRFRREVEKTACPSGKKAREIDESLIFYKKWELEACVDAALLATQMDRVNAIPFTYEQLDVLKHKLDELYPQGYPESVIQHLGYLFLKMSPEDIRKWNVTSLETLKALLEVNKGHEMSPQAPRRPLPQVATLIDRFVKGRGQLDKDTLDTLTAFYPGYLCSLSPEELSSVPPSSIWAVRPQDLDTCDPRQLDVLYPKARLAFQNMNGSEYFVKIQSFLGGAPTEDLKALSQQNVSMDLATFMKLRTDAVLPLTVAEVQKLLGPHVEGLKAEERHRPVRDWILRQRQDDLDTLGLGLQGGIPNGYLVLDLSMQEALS

- EC50 [1]: 0.073 µg/mL
- binding result [2]: no binding
B1: 1B6 monoclonal antibody (Binding Molecule A) (antibody, V domains shown)
VH: EVKLVESGGGLVKPGGSLKLSCEASGFTFSRYAMSWVRHTPEKRLAWVASITFGGDPYYPDGLKGRFTISRDNTRNILYLQMNSLRSEDTAMYYCVRHESWFAYWGQGTLVTVSA
VL: DVLMTQTPLSLPVSLGEQVSISCRSSQTIVHTDGNIYLEWYLQNPGQSPRLLIYKISNRFSGVPDRFSGSGSGTDFTLKISRVEAEDLGIYYCFQASHVPYTFGGGTKLEIK
notes: also called 1B6 antibody; 1B6 mAb
